Several values for one entry are separate records, joined by “and”; a condition that tells them apart may be missing. Equal values may be shown once.
Columns and labels:
[1] = SEC; Agilent Bio SEC-3 column, 25 °C, 50 mM sodium phosphate, 150 mM KCl, 10% isopropanol, pH 6.8; samples at 1 mg/ml; fluorescence detection; percentages from peak areas
[2] = molecular target: UV-stressed (aggregated) infliximab; experiment: FFF-MALS; asymmetric flow field flow fractionation (Eclipse AF4) with UV, MALS and dRI detectors; mobile phase 0.01 M monopotassium phosphate, 0.0027 M potassium chloride, 0.137 M sodium chloride
[3] = molecular target: macrophage mannose receptor (CD206) (human (endogenous in moDCs)) (UniProt P22897)
Sequence of UniProt P22897 (P22897 19-1456): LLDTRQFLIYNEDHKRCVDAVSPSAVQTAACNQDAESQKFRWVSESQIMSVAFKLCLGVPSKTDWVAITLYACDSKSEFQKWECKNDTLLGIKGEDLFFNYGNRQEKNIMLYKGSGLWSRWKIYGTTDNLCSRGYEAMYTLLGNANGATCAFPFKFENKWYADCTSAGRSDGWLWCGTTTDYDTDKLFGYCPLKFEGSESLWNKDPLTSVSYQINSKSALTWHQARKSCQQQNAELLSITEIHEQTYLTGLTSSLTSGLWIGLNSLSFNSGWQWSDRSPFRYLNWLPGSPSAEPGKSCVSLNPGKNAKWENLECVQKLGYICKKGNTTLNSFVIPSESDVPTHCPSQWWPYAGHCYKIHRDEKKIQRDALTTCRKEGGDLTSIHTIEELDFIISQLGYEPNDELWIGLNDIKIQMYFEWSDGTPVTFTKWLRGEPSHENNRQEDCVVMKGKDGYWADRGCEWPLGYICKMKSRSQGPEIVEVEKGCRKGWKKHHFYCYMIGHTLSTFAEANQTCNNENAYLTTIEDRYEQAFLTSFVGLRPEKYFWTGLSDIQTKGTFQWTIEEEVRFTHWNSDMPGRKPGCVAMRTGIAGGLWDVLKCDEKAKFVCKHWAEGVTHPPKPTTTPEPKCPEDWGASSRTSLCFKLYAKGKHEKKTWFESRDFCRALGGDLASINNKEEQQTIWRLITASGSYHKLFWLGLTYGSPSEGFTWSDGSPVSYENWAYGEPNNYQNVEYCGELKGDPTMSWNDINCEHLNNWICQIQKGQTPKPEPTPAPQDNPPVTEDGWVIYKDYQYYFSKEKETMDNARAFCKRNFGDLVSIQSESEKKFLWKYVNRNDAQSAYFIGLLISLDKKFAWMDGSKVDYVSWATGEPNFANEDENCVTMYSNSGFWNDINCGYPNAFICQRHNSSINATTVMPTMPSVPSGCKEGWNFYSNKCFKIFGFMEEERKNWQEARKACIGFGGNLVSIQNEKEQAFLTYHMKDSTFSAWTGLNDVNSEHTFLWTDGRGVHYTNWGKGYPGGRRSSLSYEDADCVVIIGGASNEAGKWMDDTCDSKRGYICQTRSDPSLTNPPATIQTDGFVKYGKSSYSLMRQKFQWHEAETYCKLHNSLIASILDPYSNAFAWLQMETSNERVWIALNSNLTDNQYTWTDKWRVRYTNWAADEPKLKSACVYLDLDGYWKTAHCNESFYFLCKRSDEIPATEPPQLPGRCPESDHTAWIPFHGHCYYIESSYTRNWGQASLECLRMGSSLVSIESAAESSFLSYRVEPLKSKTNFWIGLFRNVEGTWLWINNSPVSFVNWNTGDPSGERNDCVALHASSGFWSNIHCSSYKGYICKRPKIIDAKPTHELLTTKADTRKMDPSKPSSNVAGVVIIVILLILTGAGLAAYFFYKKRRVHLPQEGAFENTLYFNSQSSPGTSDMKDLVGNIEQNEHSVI

[4] = molecular target: Fc gamma receptor IIa (human (endogenous in moDCs)) (UniProt P12318)
Sequence of UniProt P12318 (P12318 34-317): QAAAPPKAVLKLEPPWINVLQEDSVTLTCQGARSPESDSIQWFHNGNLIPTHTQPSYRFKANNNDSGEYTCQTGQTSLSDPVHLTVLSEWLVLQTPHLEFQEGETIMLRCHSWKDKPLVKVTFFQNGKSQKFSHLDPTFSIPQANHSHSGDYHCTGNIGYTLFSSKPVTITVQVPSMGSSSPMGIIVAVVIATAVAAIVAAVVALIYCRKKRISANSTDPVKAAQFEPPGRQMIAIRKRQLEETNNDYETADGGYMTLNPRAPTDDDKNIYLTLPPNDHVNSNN

[5] = molecular target: UV-stressed (aggregated) infliximab; experiment: SEC; Agilent Bio SEC-3 column, 25 °C, 50 mM sodium phosphate, 150 mM KCl, 10% isopropanol, pH 6.8; samples at 1 mg/ml; fluorescence detection; percentages from peak areas

Substance	percent of dimers (ratio of SEC peak areas) [1]	percent of trimers (ratio of SEC peak areas) [1]	percent of dimers (FFF-MALS) [2] [%]	percent of trimers and oligomers (FFF-MALS) [2] [%]	inhibition of the internalization rate of AF-488 IFX UV by moDCs (flow cytometry, 37 °C minus 4 °C) after pre-treatment with anti-CD206 IgG (10 µg/ml) [3] [%]	inhibition of the percentage of moDCs internalizing AF-488 IFX UV after pre-treatment with anti-CD206 IgG (10 µg/ml) [3] [%]	reduction of the uptake of AF-488 IFX UV by moDCs after pre-treatment with anti-FcγRIIa Ab (1 µg/ml) [4] [%]	stoichiometry N [5]
UV-stressed (aggregated) infliximab	19.27% ± 0.24% dimers	26.19% ± 3.95 trimers	–	–	–	–	–	–
UV-stressed (aggregated) infliximab (antibody)	–	–	22.4	24.7	39	32	19	2 and 3

Source: PMC13582642
